Results as given in EP4786495A1 (Nanjing Leads Biolabs Co., Ltd., dated 2026).

T1: human BDCA2 protein (Kactus Biosystems, Cat# BCA-HM402) (human, UniProt Q8WTT0 45-213)
T1 construct: also called Human BDCA2-His
T1 sequence: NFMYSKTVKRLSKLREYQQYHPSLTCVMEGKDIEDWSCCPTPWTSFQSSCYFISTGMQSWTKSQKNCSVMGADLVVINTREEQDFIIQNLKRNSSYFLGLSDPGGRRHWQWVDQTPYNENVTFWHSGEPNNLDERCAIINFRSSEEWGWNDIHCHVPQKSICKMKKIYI

T2: human APRIL protein (ACRO Biosystems, Cat. No.: APL-H52D1) (human, UniProt O75888 115-250, limits assumed)
T2 sequence (looked up): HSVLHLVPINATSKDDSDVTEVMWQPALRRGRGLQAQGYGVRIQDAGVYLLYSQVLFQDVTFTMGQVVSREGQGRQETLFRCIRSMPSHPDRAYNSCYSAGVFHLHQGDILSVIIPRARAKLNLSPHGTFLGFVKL

B1: anti-BDCA2 chimeric antibody 26H10A11-1 (antibody, human IgG1, kappa, V domains shown)
VH: DVKLVESGGGLVKPGGSLKLSCAASGFTFSSSTMSWVRQTPEKRLEWVATTGGGGSYTYNPDSVKGRFTISRDNAKNTLYLQMSSLRSEDTAMYYCTRDRYDGYYFSMDFWGQGTSVTVSS
VL: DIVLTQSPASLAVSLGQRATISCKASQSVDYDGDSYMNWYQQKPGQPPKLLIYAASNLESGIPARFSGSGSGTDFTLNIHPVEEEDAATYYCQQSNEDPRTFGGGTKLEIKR
B2: anti-BDCA2 chimeric antibody 37F2C6 (antibody, human IgG1, kappa, V domains shown)
VH: QVLLQQSGPELVRPGVSVKVSCKGSGYTFTDFAVHWVKQSQTKSLEWIGLIGTSSGSTNYNQKFKDKATMTVDKSSNTAYLELARLTSEDSAIYYCARNGYYVGYYALDYWGQGTSVTVSS
VL: QTVLTQSPAIMSASPGEKVTITCSASSSVSYMYWFQQKPGTSPKLWIYSTSNLASGVPPRFSGSGSGTSYSLTISRMEAEDAATYYCQQRRNYPHTFGGGTKLEIKR
B3: bispecific fusion protein BI-9D2-A (bispecific antibody, human IgG1, kappa)
heavy: not shown
light: ETVLTQSPATLSLSPGERATLSCRASSSVSYMYWFQQKPGQAPRLLIYSTSNLASGIPARFSGSGSGTDYTLTISSLEPEDFAVYYCQQRRNYPHTFGGGTKVEIKRTVAAPSVFIFPPSDEQLKSGTASVVCLLNNFYPREAKVQWKVDNALQSGNSQESVTEQDSKDSTYSLSSTLTLSKADYEKHKVYACEVTHQGLSSPVTKSFNRGEC
notes: also called heavy chain 37F2C6-HuVH3-D2
B4: bispecific fusion protein BI-9ND2-A (bispecific antibody, human IgG1, kappa)
heavy: not shown
light: B3 light
notes: also called heavy chain 37F2C6-HuVH3-3N-D2
B5: bispecific fusion protein having YTE mutations in the Fc region BI-9ND2-A-YTE (bispecific antibody, human IgG1, kappa)
heavy: SLSCRKEQGKFYDHLLRDCISCASICGQHPKQCAYFCENGGGGSGGGGSGGGGSQVQLVQSGAEVKKPGASVKVSCKASGYTFTDFAVHWVRQAPGQRLEWMGLIGTSSGSTNYNQKFQGRATMTVDKSANTAYMELSSLRSEDTAVYYCARNGYYVGYYALDYWGQGTTVTVSSASTKGPSVFPLAPSSKSTSGGTAALGCLVKDYFPEPVTVSWNSGALTSGVHTFPAVLQSSGLYSLSSVVTVPSSSLGTQTYICNVNHKPSNTKVDKKVEPKSCDKTHTCPPCPAPELLGGPSVFLFPPKPKDTLYITREPEVTCVVVDVSHEDPEVKFNWYVDGVEVHNAKTKPREEQYNSTYRVVSVLTVLHQDWLNGKEYKCKVSNKALPAPIEKTISKAKGQPREPQVYTLPPSRDELTKNQVSLTCLVKGFYPSDIAVEWESNGQPENNYKTTPPVLDSDGSFFLYSKLTVDKSRWQQGNVFSCSVMHEALHNHYTQKSLSLSPGK
light: B3 light
notes: also called heavy chain 37F2C6-HuVH3-ND2-YTE
B6: control antibody telitacicept (Fc fusion)
chain: SRVDQEERFPQGLWTGVAMRSCPEEQYWDPLLGTCMSCKTICNHQSQRTCAAFCRSLSCRKEQGKFYDHLLRDCISCASICGQHPKQCAYFCENKLRSPVNLPPELDKTHTCPPCPAPEAEGAPSVFLFPPKPKDTLMISRTPEVTCVVVDVSHEDPEVKFNWYVDGVEVHNAKTKPREEQYNSTYRVVSVLTVLHQDWLNGKEYKCKVSNKALPSSIEKTISKAKGQPREPQVYTLPPSRDELTKNQVSLTCLVKGFYPSDIAVEWESNGQPENNYKTTPPVLDSDGSFFLYSKLTVDKSRWQQGNVFSCSVMHEALHNHYTQKSLSLSPGK
notes: TACI-Fc fusion control; also called TACI fusion protein telitacicept

What was measured:
[1] = target: T1, human BDCA2 protein (Kactus Biosystems, …); test: BLI Octet RED96, antibody captured on AHC sensor, BDCA2 50 nM in solution
[2] = target: T1, human BDCA2 protein (Kactus Biosystems, …); test: BLI Octet RED96e, antibody captured on AHC sensor, BDCA2 100 nM in solution
[3] = target: T1, human BDCA2 protein (Kactus Biosystems, …); test: BLI Octet RED96e, protein captured on AHC sensor, BDCA2 100 nM in solution
[4] = target: T3, human BAFF protein (ACRO Biosystems, Cat. No.: BAF-H52D4) (human, UniProt Q9Y275 134-285); test: BLI Octet RED96e, protein captured on AHC sensor, BAFF 1.56-100 nM in solution
[5] = target: T2, human APRIL protein (ACRO Biosystems, …); test: BLI Octet RED96e, protein captured on AHC sensor, APRIL 100 nM in solution
[6] = target: T1, human BDCA2 protein (Kactus Biosystems, …); test: BLI Octet RED96e, fusion protein captured on AHC sensor, BDCA2 1.56-100 nM in solution
[7] = target: T2, human APRIL protein (ACRO Biosystems, …); test: BLI Octet RED96e, protein captured on AHC sensor, APRIL 1.56-100 nM in solution
[8] = target: T3, human BAFF protein (ACRO Biosystems, …); test: BLI Octet RED96e, protein captured on AHC sensor, BAFF 100 nM in solution
[9] = target: T4, human FcRn protein (ACRO Biosystems, Cat. No.: FCM-H82W4) (human, UniProt P55899 24-297; P61769 21-119); test: BLI Octet RED96e, FcRn on SA sensor, fusion protein 3.13-200 nM; binding pH 6.0, dissociation pH 7.4
[10] = target: T4, human FcRn protein (ACRO Biosystems, …); test: BLI Octet RED96e, FcRn on SA sensor, fusion protein 3.13-200 nM; binding pH 6.0, dissociation pH 6.0
[11] = target: T3, human BAFF protein (ACRO Biosystems, …); test: BLI Octet RED96e, protein captured on AHC sensor, BAFF 1.56-100 nM in solution; remark: listed apart in the source
[12] = target: T1, human BDCA2 protein (Kactus Biosystems, …); test: BLI Octet RED96e, fusion protein captured on AHC sensor, BDCA2 1.56-100 nM in solution; remark: listed apart in the source
[13] = target: T2, human APRIL protein (ACRO Biosystems, …); test: BLI Octet RED96e, protein captured on AHC sensor, APRIL 1.56-100 nM in solution; remark: listed apart in the source

T3 sequence (Q9Y275 134-285 limits assumed): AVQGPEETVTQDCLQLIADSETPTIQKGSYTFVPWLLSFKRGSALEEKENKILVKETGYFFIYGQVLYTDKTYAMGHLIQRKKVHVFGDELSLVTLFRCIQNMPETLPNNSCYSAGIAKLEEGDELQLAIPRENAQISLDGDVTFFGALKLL
T4 sequence (P55899 24-297 limits assumed, chain 1 of 2): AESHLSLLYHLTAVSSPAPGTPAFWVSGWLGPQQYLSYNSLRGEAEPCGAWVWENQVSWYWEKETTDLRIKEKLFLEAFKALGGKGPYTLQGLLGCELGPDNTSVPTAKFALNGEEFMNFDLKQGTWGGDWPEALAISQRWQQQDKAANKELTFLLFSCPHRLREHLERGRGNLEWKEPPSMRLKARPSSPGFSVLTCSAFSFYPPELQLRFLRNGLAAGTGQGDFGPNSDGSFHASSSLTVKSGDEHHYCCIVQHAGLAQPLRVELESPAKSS
T4 sequence (P61769 21-119 limits assumed, chain 2 of 2): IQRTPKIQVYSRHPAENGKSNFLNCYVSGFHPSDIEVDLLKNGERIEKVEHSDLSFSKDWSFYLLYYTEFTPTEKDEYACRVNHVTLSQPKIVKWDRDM

| Binder | Kd [1] | koff [1] | kon [1] | Kd [3] | Response (nm) [3] | kon [3] | Kd [4] | koff [4] | kon [4] | Kd [5] | Response (nm) [5] | koff [5] | kon [5] | Kd [7] | koff [7] | kon [7] | Kd [8] | Response (nm) [8] | koff [8] | kon [8] | other results |
| --- | --- | --- | --- | --- | --- | --- | --- | --- | --- | --- | --- | --- | --- | --- | --- | --- | --- | --- | --- | --- | --- |
| B1 | 0.503 nM | 6.16e-05 s⁻¹ | 123000 M⁻¹ s⁻¹ |  |  |  |  |  |  |  |  |  |  |  |  |  |  |  |  |  |  |
| B2 | < 0.001 nM | < 1e-07 s⁻¹ | 161000 M⁻¹ s⁻¹ |  |  |  |  |  |  |  |  |  |  |  |  |  |  |  |  |  | Kd [2]: < 0.001 nM; koff [2]: < 1e-07 s⁻¹; kon [2]: 141000 M⁻¹ s⁻¹ |
| B3 |  |  |  | < 0.001 nM | 0.481 nm | 154000 M⁻¹ s⁻¹ | < 0.001 nM | < 1e-07 s⁻¹ | 571000 M⁻¹ s⁻¹ | 0.246 nM | 0.252 nm | 0.000214 s⁻¹ | 873000 M⁻¹ s⁻¹ | 0.679 nM | 0.00059 s⁻¹ | 868000 M⁻¹ s⁻¹ | < 0.001 nM | 0.338 nm | < 1e-07 s⁻¹ | 407000 M⁻¹ s⁻¹ | koff [3]: < 1e-07 s⁻¹; Kd [6]: < 0.001 nM; koff [6]: < 1e-07 s⁻¹; kon [6]: 88800 M⁻¹ s⁻¹ |
| B4 |  |  |  | < 0.001 nM | 0.449 nm | 112000 M⁻¹ s⁻¹ | 0.147 nM | 7.23e-05 s⁻¹ | 492000 M⁻¹ s⁻¹ | < 0.001 nM | 0.397 nm | < 1e-07 s⁻¹ | 722000 M⁻¹ s⁻¹ | 0.415 nM | 0.000321 s⁻¹ | 774000 M⁻¹ s⁻¹ | < 0.001 nM | 0.49 nm | < 1e-07 s⁻¹ | 438000 M⁻¹ s⁻¹ | Kd [9]: 3140 nM; koff [9]: 0.0842 s⁻¹; kon [9]: 26800 M⁻¹ s⁻¹; koff [3]: < 1e-07 s⁻¹; Kd [10]: 20.1 nM; koff [10]: 0.035 s⁻¹; kon [10]: 1.74e+06 M⁻¹ s⁻¹; Kd [6]: < 0.001 nM; koff [6]: < 1e-07 s⁻¹; kon [6]: 86600 M⁻¹ s⁻¹ |
| B5 |  |  |  |  |  |  |  |  |  |  |  |  |  |  |  |  |  |  |  |  | Kd [9]: 727 nM; koff [9]: 0.0888 s⁻¹; kon [9]: 122000 M⁻¹ s⁻¹; Kd [11]: 0.0384 nM; koff [11]: 1.97e-05 s⁻¹; kon [11]: 515000 M⁻¹ s⁻¹; Kd [10]: 5.12 nM; koff [10]: 0.0062 s⁻¹; kon [10]: 1.21e+06 M⁻¹ s⁻¹; Kd [12]: < 0.001 nM; koff [12]: < 1e-07 s⁻¹; kon [12]: 100000 M⁻¹ s⁻¹; Kd [13]: < 0.001 nM; koff [13]: < 1e-07 s⁻¹; kon [13]: 981000 M⁻¹ s⁻¹ |
| B6 |  |  |  |  | -0.0175 nm | 95600 M⁻¹ s⁻¹ | 1.47 nM | 0.000475 s⁻¹ | 323000 M⁻¹ s⁻¹ | 2.08 nM | 0.199 nm | 0.00141 s⁻¹ | 681000 M⁻¹ s⁻¹ | 2.05 nM | 0.00139 s⁻¹ | 678000 M⁻¹ s⁻¹ | 1.1 nM | 0.319 nm | 0.000262 s⁻¹ | 239000 M⁻¹ s⁻¹ | Kd [11]: 1.47 nM; koff [11]: 0.000475 s⁻¹; kon [11]: 323000 M⁻¹ s⁻¹; Kd [13]: 2.05 nM; koff [13]: 0.00139 s⁻¹; kon [13]: 678000 M⁻¹ s⁻¹ |
